Our source for the Kd, binding signal (fold weaker than poly(A) RNA) and binding signal (fold weaker than poly(C) RNA) values is PMC10777347, “De Novo Single-Stranded RNA-Binding Peptides Discovered by Codon-Restricted mRNA Display” (Biomacromolecules, 2023).

Data set [1] deals with CP1 (synthetic (de novo)). The data set can be described thus: MST. The conditions noted are these: Spectral shift: 10 mM Tris-HCl pH 8.0, 0.05% Tween 20, no added salt, 25 C, Cy5 oligo (20 nM stock), 30 min at RT; MST with oncogenic RNAs in human plasma-like ….
In data set [2] the test system is AP2 (synthetic (de novo)). In words: spectral shift. Particulars: Spectral shift: 10 mM Tris-HCl pH 8.0, 0.05% Tween 20, no added salt, 25 C, Cy5 oligo (20 nM stock), 30 min at RT; MST with oncogenic RNAs in human plasma-like ….
For data set [3], the system named is CP1 (synthetic (de novo)). In words: spectral shift. The conditions noted are these: Spectral shift: 10 mM Tris-HCl pH 8.0, 0.05% Tween 20, no added salt, 25 C, Cy5 oligo (20 nM stock), 30 min at RT; MST with oncogenic RNAs in human plasma-like ….
The subject of data set [4] is AP2 QNQ to TNH (synthetic (de novo)). The data set can be described thus: spectral shift. The conditions noted are these: Spectral shift: 10 mM Tris-HCl pH 8.0, 0.05% Tween 20, no added salt, 25 C, Cy5 oligo (20 nM stock), 30 min at RT; MST with oncogenic RNAs in human plasma-like ….
In data set [5] the test system is CP2 (synthetic (de novo)). The data set can be described thus: spectral shift. Particulars: Spectral shift: 10 mM Tris-HCl pH 8.0, 0.05% Tween 20, no added salt, 25 C, Cy5 oligo (20 nM stock), 30 min at RT; MST with oncogenic RNAs in human plasma-like ….
In data set [6] the test system is AP2-short (synthetic (de novo)). The data set can be described thus: spectral shift. The conditions noted are these: Spectral shift: 10 mM Tris-HCl pH 8.0, 0.05% Tween 20, no added salt, 25 C, Cy5 oligo (20 nM stock), 30 min at RT; MST with oncogenic RNAs in human plasma-like ….
The subject of data set [7] is AP2-short Q to S (synthetic (de novo)). The data set can be described thus: spectral shift. Particulars: Spectral shift: 10 mM Tris-HCl pH 8.0, 0.05% Tween 20, no added salt, 25 C, Cy5 oligo (20 nM stock), 30 min at RT; MST with oncogenic RNAs in human plasma-like ….
In data set [8] the target is Cdk6 3′UTR RNA. The conditions noted are these: fluorescence anisotropy binding assay, previous study; read-out: KD^hnRNPK, Cdk6 3′UTR RNA; cited from earlier work. As for the experimental part: To evaluate the synthetic ssRNA-binding peptide’s affinity for biologically derived RNA targets, we have chosen two cytosine-rich RNA motifs from the oncogenic Cdk6 3′UTR RNA and MYU lncRNA. These motifs have previously been identified as targets of hnRNPK,[45] and they both consist of extended cytosine repeats (>4 nt) within a necessary single-stranded region for the progression of colon cancer cells. […] The KD^CP1s were measured using microscale thermophoresis in a human plasma-like medium. Cytosines predicted to be single-stranded within RNA ligands are highlighted in red. Cytosine-to-adenine substitution is highlighted in blue. The predicted secondary structures are available in Figure S11. The complete thermodynamic plots are shown in Figure S12. *The KD^hnRNPKs are the dissociation ...

Data set [9] deals with MYU lncRNA. Particulars: fluorescence anisotropy binding assay, previous study; read-out: KD^hnRNPK, MYU lncRNA; cited from earlier work. As for the experimental part: Figure 7 Assessment of the affinity of poly(C) RNA-binding peptides to cytosine-rich oncogenic RNA motifs. […] The KD^CP1s were measured using microscale thermophoresis in a human plasma-like medium. Cytosines predicted to be single-stranded within RNA ligands are highlighted in red. Cytosine-to-adenine substitution is highlighted in blue. The predicted secondary structures are available in Figure S11. The complete thermodynamic plots are shown in Figure S12. *The KD^hnRNPKs are the dissociation ...

In data set [10] the target is hnRNPK (UniProt P61978). The data set can be described thus: fluorescence anisotropy. Particulars: Spectral shift: 10 mM Tris-HCl pH 8.0, 0.05% Tween 20, no added salt, 25 C, Cy5 oligo (20 nM stock), 30 min at RT; MST with oncogenic RNAs in human plasma-like …; cited from earlier work.

For the substance “GGCUCCCCCGACCUCUGUGCUCCCCUCCCCCGACCUCUGUGC [MYU lncRNA motif]”, the Kd (commonly the free concentration of one partner at which half of the binding sites on the other are occupied at equilibrium, for simple one-to-one binding) in [1] came to 107 nM.

On to AAAAAAAAAAAA [poly(A) DNA], for which the binding signal (fold weaker than poly(A) RNA) in data set [2] was 2.

Consider CCCCCCCCCCCC [poly(C) DNA], for which the binding signal (fold weaker than poly(C) RNA) in data set [3] was found to be 7.

Consider CCCCCCCCCCCC [poly(C) RNA], for which the Kd in data set [4] amounted to 120000 nM; in [3] it was 900 nM; in [5] it was 1200 nM.

Consider poly(C) RNA / antisense DNA hybrid, for which the binding signal (fold weaker than poly(C) RNA) in data set [3] was determined as 6.

As to AAAAAAAAAAAA [poly(A) RNA], the values for the Kd in [2], in [6] and in data set [7] were 18800 nM, 82000 nM and 115000 nM, respectively. For the same substance, the binding signal (fold weaker than poly(C) RNA) in [3] was found to be 4.

With “hnRNPK: endogenous RNA-binding protein with KH domain, binds cytosine-rich RNA motifs”, the Kd in data set [8] was 450 nM; in data set [9], 70 ± 7 nM.

Consider “GGUCCCCCGCCUCAUUCGCCCCUCUGCUCCC [Cdk6 3'UTR RNA motif]”, for which the Kd in [1] was 103 nM; in data set [10] it was 450 nM.
